# Results published in patent US20240400677A1 (ELECTRA THERAPEUTICS, published 2024).
# B1: Antibody 21 (scFv, V domains shown)
# VH: EVQLLESGGGLVQPGGSLRLSCAASGFTLGSYWMHWVRQAPGKGLEWVSLISWDGGSTYYADSVKGRFTISRDNSKNTLYLQMNSLRAEDTAVYYCAKGPWVGYSGYDLNYYYYGMDVWGQGTTVTVSS
# VL: DIQMTQSPSSLSASVGDRVTITCRASQDIRRALAWYQQKPGKAPKLLIYAASSLQSGVPSRFSGSGSGTDFTLTISSLQPEDFATYYCLQHNSYPPTFGQGTKLEIK
# notes: scFv in crude PPE, V5/myc-tagged
# B2: Antibody 32 (scFv, V domains shown)
# VH: QVQLVQSGAEVKKPGASVKVSCKASGYTFTSYYMYWVRQAPGQGLEWMGWINPNSGNTGYAQKFQGRVTMTRDTSTSTVYMELSSLRSEDTAVYYCAKDRRRGVGLAAAGTSAFDIWGQGTMVTVSS
# VL: DIQMTQSPSSLSASVGDRVTITCRASQSISNWLAWYQQKPGKAPKLLIYAASSLQSGVPSRFSGSGSGTDFTLTISSLQPEDFATYYCQQSYSTPYTFGQGTKLEIK
# notes: as for B1
# B3: Antibody 24 (scFv, V domains shown)
# VH: QVQLVQSGAEVKKPGASVKVSCKASGYTFTGYYMHWVRQAPGQGLEWMGIINPSGGSTNYAQKFQGRVTMTRDTSTSTVYMELSSLRSEDTAVYYCARGPIGYGMDVWGQGTLVTVSS
# VL: DIQMTQSPSSLSASVGDRVTITCRASQGIGNDLGWYQQKPGKAPKLLIYAASNLETGVPSRFSGSGSGTDFTLTISSLQPEDFATYYCLQHHSYPFTFGQGTKLEIK
# notes: as for B1
# B4: Antibody 27 (scFv, V domains shown)
# VH: QVQLVQSGAEVKKPGASVKVSCKASGYTFTSHDINWVRQAPGQGLEWMGWMNANNGNAGYAQKFQGRVTMTRDTSTSTVYMELSSLRSEDTAVYYCAKDLSPSSSWSTYYYYYGMDVWGQGTMVTVSS
# VL: DIQMTQSPSSLSASVGDRVTITCRASQSISNLLAWYQQKPGKAPKLLIYAASSLQSGVPSRFSGSGSGTDFTLTISSLQPEDFATYYCQQSYSTPYTFGQGTKLEIK
# notes: as for B1
# B5: Antibody 14 (scFv, V domains shown)
# VH: QVQLVQSGAEVKKPGASVKVSCKASGYTFTSYYMHWVRQAPGQGLEWMGWVDPNNGDTGYAQKFQGRVTMTRDTSTSTVYMELSSLRSEDTAVYYCARDNWGSLDVWGKGTTVTVSS
# VL: DIVMTQSPLSLPVTPGEPASISCRSSQSLLHSNGYNYLDWYLQKPGQSPQLLIYAASTLQSGVPDRFSGSGSGTDFTLKISRVEAEDVGVYYCMQGLQTLYSFGQGTKLEIK
# notes: as for B1
# B6: Antibody 34 (scFv, V domains shown)
# VH: QVQLVQSGAEVKKPGASVKVSCKASGYTFSNYYMHWVRQAPGQGLEWMGWMNPNSGNTGYAQKFQGRVTMTRDTSTSTVYMELSSLRSEDTAVYYCARASMYSSSGFDYWGQGTLVTVSS
# VL: DIVMTQSPLSLPVTPGEPASISCRSSQSLLHSNGYNYLDWYLQKPGQSPQLLIYLASTRAPGVPDRFSGSGSGTDFTLKISRVEAEDVGVYYCMQGSHWPPSFGQGTRLEIK
# notes: as for B1
# B7: Antibody 9 (scFv, V domains shown)
# VH: QVQLVQSGAEVKKPGASVKVSCKASGYSFSDYYMHWVRQAPGQGLEWMGWMSPNSGNTGYAQKFQGRVTMTRDTSTSTVYMELSSLRSEDTAVYYCARQREEYGHYYYGMDVWGQGTMVTVSS
# VL: EIVMTQSPATLSVSPGERATLSCRASQSLGSTYLAWYQQKPGQAPRLLIYGASTRATGIPARFSGSGSGTEFTLTISSLQSEDFAVYYCQQYYSSPPTFGQGTKVEIK
# notes: as for B1
# B8: Antibody 29 (scFv, V domains shown)
# VH: QVQLVQSGAEVKKPGASVKVSCKASGGTFSSYAISWVRQAPGQGLEWMGIINPSSSSTGYAQKFQGRVTMTRDTSTSTVYMELSSLRSEDTAVYYCARAGYYDSSGYYYSPYYGMDVWGQGTTVTVSS
# VL: EIVMTQSPATLSVSPGERATLSCRASQSISGSYLAWYQQKPGQAPRLLIYGASTRATGIPARFSGSGSGTEFTLTISSLQSEDFAVYYCQQYGSFPFTFGPGTKVDIK
# notes: as for B1
# B9: Antibody 16 (scFv, V domains shown)
# VH: QVQLVQSGAEVKKPGASVKVSCKASGYTFTSYYMHWVRQAPGQGLEWMGWINPNSGNAGFAQKFQGRVTMTRDTSTSTVYMELSSLRSEDTAVYYCARGPVYSYGPFDYWGQGTLVTVSS
# VL: DIQMTQSPSSLSASVGDRVTITCRASQGISTYLAWYQQKPGKAPKLLIYAASTLQSGVPSRFSGSGSGTDFTLTISSLQPEDFATYYCQQSHSAPITFGQGTKVEIK
# notes: as for B1
# B10: Antibody 33 (scFv, V domains shown)
# VH: QVQLVQSGAEVKKPGASVKVSCKASGYTFTSYYMHWVRQAPGQGLEWMGWMNPNSDNTGYAQKFQGRVTMTRDTSTSTVYMELSSLRSEDTAVYYCARVGVGYGYYYYGMDVWGQGTTVTVSS
# VL: DIQMTQSPSSLSASVGDRVTITCRAGQSIGDYLNWYQQKPGKAPKLLIYAASSLQSGVPSRFSGSGSGTDFTLTISSLQPEDFATYYCQQSYSTPWTFGQGTKVEIK
# notes: as for B1
# B11: Antibody 35 (scFv, V domains shown)
# VH: QVQLVQSGAEVKKPGASVKVSCKASGYTFTSYYIHWVRQAPGQGLEWMGTINPSGGSTSYAQKFQGRVTMTRDTSTSTVYMELSSLRSEDTAVYYCARETSRWLRDYYYGMDVWGQGTTVTVSS
# VL: DIVMTQSPLSLPVTPGEPASISCRSSQSLLHSNGYNYLDWYLQKPGQSPQLLIYDASSLESGVPDRFSGSGSGTDFTLKISRVEAEDVGVYYCMQGTHWPLTFGGGTKVEIK
# notes: as for B1
# B12: Antibody 20 (scFv, V domains shown)
# VH: QVQLVQSGAEVKKPGASVKVSCKASGYTFTSYDINWVRQAPGQGLEWMGWMNPNSGNTGYAQKFQGRVTMTRDTSTSTVYMELSSLRSEDTAVYYCARESYAYCSSTSCYDAFDIWGQGTMVTVSS
# VL: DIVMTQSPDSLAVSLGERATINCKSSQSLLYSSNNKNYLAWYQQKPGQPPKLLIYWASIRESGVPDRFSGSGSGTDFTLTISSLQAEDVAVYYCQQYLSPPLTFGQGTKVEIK
# notes: as for B1
# What was measured:
# [1] = target: T1, cynomolgus monkey SIRPα on CHO cells (cynomolgus monkey, UniProt A0A2K5VYQ9 31-507); test: flow cytometry
# T1 construct: whole, on cells; also called Cyno SIRPα CHO
# T1 sequence: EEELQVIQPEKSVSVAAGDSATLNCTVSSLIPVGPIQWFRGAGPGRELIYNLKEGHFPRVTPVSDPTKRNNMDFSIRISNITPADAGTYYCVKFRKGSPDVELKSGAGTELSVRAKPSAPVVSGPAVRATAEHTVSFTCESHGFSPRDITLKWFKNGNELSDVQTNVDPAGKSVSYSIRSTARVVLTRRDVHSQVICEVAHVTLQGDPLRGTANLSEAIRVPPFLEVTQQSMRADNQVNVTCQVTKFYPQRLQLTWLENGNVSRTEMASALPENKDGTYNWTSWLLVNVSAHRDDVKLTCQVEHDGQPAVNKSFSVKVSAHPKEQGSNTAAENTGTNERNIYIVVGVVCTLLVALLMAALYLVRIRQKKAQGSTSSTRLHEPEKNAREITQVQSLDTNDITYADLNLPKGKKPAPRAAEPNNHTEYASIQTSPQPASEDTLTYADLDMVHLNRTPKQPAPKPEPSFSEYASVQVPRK
# [2] = target: T2, human SIRPβ1 on CHO cells (co-transfected with DAP12) (human, UniProt O00241 30-398); test: flow cytometry
# T2 construct: whole, on cells; co-transfected with DAP12; also called Human SIRPβ1 CHO
# [3] = target: T3, cynomolgus monkey SIRPγ on CHO cells (cynomolgus monkey, UniProt Q9P1W8 29-386 (human entry)); test: flow cytometry, myc-scFv PPE
# T3 construct: also called Cyno SIRPγ CHO
# T3 chain: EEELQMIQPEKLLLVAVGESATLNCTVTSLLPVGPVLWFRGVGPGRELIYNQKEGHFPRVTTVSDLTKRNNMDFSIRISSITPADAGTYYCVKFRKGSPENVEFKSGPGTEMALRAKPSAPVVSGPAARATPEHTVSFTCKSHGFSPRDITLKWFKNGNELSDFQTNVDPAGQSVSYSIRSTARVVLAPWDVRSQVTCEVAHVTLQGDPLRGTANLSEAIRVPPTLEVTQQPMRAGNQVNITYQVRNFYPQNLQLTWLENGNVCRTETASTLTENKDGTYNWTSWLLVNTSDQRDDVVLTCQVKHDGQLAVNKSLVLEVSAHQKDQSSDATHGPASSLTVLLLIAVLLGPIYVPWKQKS
# Procedure: (§1) Selected antibodies were tested for binding to stably transfected human SIRPγ, SIRPαV1, or SIRPβ1 (co-transfected with DAP12) Chinese hamster ovary (CHO) cells via flow cytometry. A titration of select antibodies was added to the cells and detected using a fluorescently labelled secondary anti-rat IgG antibody or anti-human IgG antibody. Graphs depict the median fluorescence intensity (MFI) at each concentration. FIGS. 5A and 5G show the binding curves of select antibodies to human SIRPγ, cynomolgus monkey SIRPγ, human SIRPα, cynomolgus monkey SIRPα, human SIRPβ1, or cynomolgus monkey SIRPβl-expressing CHO cells detected using an anti-rat IgG antibody. FIGS. 5B-5F and 5H-5L show the binding curves of select antibodies to human SIRPγ, cynomolgus monkey SIRPγ, human SIRPα, cynomolgus monkey SIRPα, human SIRPβ1, or cynomolgus monkey SIRPβ1-expressing CHO cells detected using an anti-human IgG antibody. […] For select antibodies, each myc-tagged SIRPγ scFv antibody as crude PPE was incubated with each of the SIRP-expressing cell lines stated above along with the parental CHO-K1 cell line. […] Fold change value <2.0 is considered a non-binder.
# [4] = target: T4, human SIRPγ on stably transfected CHO cells (human, UniProt Q9P1W8 29-387); test: flow cytometry, myc-scFv PPE
# T4 construct: also called Human SIRPγ CHO
# Procedure: as §1
# [5] = target: T5, human SIRPγ-His monomer protein (human, UniProt Q9P1W8 29-360); test: BLI Octet, V5-scFv PPE captured, SIRP-His 500 nM
# T5 construct: also called hSIRPγ
# T5 sequence (Q9P1W8 29-360 limits assumed): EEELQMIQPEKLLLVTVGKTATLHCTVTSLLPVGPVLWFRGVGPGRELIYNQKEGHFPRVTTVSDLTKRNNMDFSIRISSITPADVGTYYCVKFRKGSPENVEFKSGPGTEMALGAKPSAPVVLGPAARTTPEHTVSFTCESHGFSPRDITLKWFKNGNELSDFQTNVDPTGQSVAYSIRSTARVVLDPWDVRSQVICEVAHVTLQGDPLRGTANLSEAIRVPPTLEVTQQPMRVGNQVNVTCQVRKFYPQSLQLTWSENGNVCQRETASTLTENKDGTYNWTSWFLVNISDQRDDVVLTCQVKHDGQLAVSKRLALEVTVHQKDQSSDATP
# T4 sequence (Q9P1W8 29-387 limits assumed): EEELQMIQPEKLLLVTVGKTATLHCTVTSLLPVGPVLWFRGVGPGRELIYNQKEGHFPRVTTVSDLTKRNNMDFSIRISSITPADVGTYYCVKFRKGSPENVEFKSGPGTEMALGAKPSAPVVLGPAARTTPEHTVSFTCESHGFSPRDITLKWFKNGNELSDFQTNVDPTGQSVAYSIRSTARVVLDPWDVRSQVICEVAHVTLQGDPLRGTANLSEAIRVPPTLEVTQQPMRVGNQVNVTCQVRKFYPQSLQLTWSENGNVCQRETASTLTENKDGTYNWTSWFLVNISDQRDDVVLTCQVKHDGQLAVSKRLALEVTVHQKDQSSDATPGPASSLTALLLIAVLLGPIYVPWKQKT
# T2 sequence (O00241 30-398): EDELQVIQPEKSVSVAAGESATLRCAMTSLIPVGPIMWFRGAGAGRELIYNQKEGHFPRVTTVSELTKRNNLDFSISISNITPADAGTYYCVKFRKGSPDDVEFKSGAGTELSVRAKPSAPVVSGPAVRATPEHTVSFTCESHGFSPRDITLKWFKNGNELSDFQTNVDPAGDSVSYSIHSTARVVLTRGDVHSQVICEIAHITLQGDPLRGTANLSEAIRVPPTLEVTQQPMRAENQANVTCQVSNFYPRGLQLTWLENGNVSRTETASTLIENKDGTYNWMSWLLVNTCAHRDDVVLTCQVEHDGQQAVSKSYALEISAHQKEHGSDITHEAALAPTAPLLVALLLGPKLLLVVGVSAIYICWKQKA
Binder,binding result [1],binding result [2],MFI fold change over parental CHO [3],MFI fold change over parental CHO [4],kdis [5]
B1,no binding (tested: fold change <2.0),no binding (tested: fold change <2.0),96.1 fold,51.4 fold,0.001 to 0.01 s⁻¹
B2,no binding (tested: fold change <2.0),no binding (tested: fold change <2.0),9.63 fold,10.2 fold,< 0.001 s⁻¹
B3,no binding (tested: fold change <2.0),no binding (tested: fold change <2.0),9.85 fold,11.1 fold,> 0.01 s⁻¹
B4,no binding (tested: fold change <2.0),no binding (tested: fold change <2.0),5.81 fold,23.2 fold,0.001 to 0.01 s⁻¹
B5,–,no binding (tested: fold change <2.0),18 fold,19.6 fold,0.001 to 0.01 s⁻¹
B6,no binding (tested: fold change <2.0),no binding (tested: fold change <2.0),12 fold,18.7 fold,0.001 to 0.01 s⁻¹
B7,no binding (tested: fold change <2.0),no binding (tested: fold change <2.0),6.87 fold,10.4 fold,0.001 to 0.01 s⁻¹
B8,no binding (tested: fold change <2.0),no binding (tested: fold change <2.0),13 fold,11.4 fold,0.001 to 0.01 s⁻¹
B9,no binding (tested: fold change <2.0),no binding (tested: fold change <2.0),16.3 fold,33 fold,–
B10,no binding (tested: fold change <2.0),no binding (tested: fold change <2.0),8.02 fold,20 fold,0.001 to 0.01 s⁻¹
B11,no binding (tested: fold change <2.0),–,12.8 fold,18.3 fold,0.001 to 0.01 s⁻¹
B12,no binding (tested: fold change <2.0),no binding (tested: fold change <2.0),10.5 fold,8.87 fold,< 0.001 s⁻¹
